Reference: the DeepSol protein solubility set

Experiment: soluble on expression in E. coli; label from the status in PepcDB or PDB records

Soluble on expression in E. coli, soluble:
MSFLISFDKSKKHPAHLQLANNLKIALALEYASKNLKPEVDNDNAAMELRNTKEPFLLFDANAILRYVMDDFEGQTSDKYQFALASLQNLLYHKELPQQHVEVLTNKAIENYLVELKEPLTTTDLILFANVYALNSSLVHSKFPELPSKVHNAVALAKKH
AIAFILSAQRLSGTQVFRRLAEGCTGYSVSSGCRQRRRCCPGAPQRPRRVRVNALQLQSGLADPLDPKSEAEVREHLRSNSPAERALGINYARYLDESTRYDILLEMMEDTDPQVRYAAVTQLATVGSHDRQRTLKAVRKILWNTEEDASVRAGALTCWAVSGSTRPSQTWKSSSTSRRTGWCGSASSLL
MSLPTTIQAISAEAINLPLTEPFAIASGAQAVAANVLVKVQLADGTLGLGEAAPFPAVSGETQTGTSAAIERLQSHLLGADVRGWRKLAAMLDHAEHEAAAARCGLEMAMLDALTRHYHMPLHVFFGGVSKQLETDMTITAGDEVHAAASAKAILARGIKSIKVKTAGVDVAYDLARLRAIHQAAPTAPLIVDGNCGYDVERALAFCAACKAESIPMVLFEQPLPREDWAGMAQVTAQSGFAVAADESARSAHDVLRIAREGTASVINIKLMKAGVAEGLKMIAIAQAAGLGLMIGGMVESILAMSFSANLAAGNGGFDFIDLDTPLFIAEHPFIGGFAQTGGTLQLADVAGHGVNLEGHHHHHH
ENLMQVYQQARLSNPELRKSAADRDAAFEKINEARSPLLPQLGLGADYTYSNGYRDANGINSNATSASLQLTQSIFDMSKWRALTLQEKAAGIQDVTYQTDQQTLILNTATAYFNVLNAIDVLSYTQAQKEAIYRQLDQTTQRFNVGLVAITDVQNARAQYDTVLANELTARNNLDNAVEQLRQITGNYYPELAALNVENFKTDKPQPVNALLKEAEKRNLSLLQARLSQDLAREQIRQAQDGHLPTLDLTASTGISDTSYSGSKTRGAAGTQYDDSNMGQNKVGLSFSLPIYQGGMVNSQVKQAQYNFVGASEQLESAHRSVVQTVRSSFNNINASISSINAYKQAVVSAQSSLDAMEAGYSVGTRTIVDVLDATTTLYNAKQELANARYNYLINQLNIKSALGTLNEQDLLALNNALSKPVSTNPENVAPQTPEQNAIADGYAPDSPAPVVQQTSARTTTSNGHNPFRN
MVVPLKRIDKIRWEIPKFDKRMRVPGRVYADEVLLEKMKNDRTLEQATNVAMLPGIYKYSIVMPDGHQGYGFPIGGVAAFDVKEGVISPGGIGYDINCGVRLIRTNLTEKEVRPRIKQLVDTLFKNVPSGVGSQGRIKLHWTQIDDVLVDGAKWAVDNGYGWERDLERLEEGGRMEGADPEAVSQRAKQRGAPQLGSLGSGNHFLEVQVVDKIFDPEVAKAYGLFEGQVVVMVHTGSRGLGHQVASDYLRIMERAIRKYRIPWPDRELVSVPFQSEEGQRYFSAMKAAANFAWANRQMITHWVRESFQEVFKQDPEGDLGMDIVYDVAHNIGKVEEHEVDGKRVKVIVHRKGATRAFPPGHEAVPRLYRDVGQPVLIPGSMGTASYILAGTEGAMKETFGSTCHGAGRVLSRKAATRQYRGDRIRQELLNRGIYVRAASMRVVAEEAPGAYKNVDNVVKVVSEAGIAKLVARMRPIGVAKG
MSLLSEENEFLFDLNEIPEKTVYSDDGDEFLFDLNKIPPREETVNSSDEDFADHLHRRNQATKRKKKLRKRPKVFRHIEKVISFSFYLVLRASSFLFLDLNWGLRMDTDPYQELRMDTDHMTYEQLLQLCNNMGYENSGVKASNIDRCLRNTKPSEFQSLADKICCICQDGFQKRAGVGKLNCGHNFHVNCVKPWILTKK
MGKPTGFMEIKREKPAERDPLTRLKDWKEYSAPFSEEASKRQGARCMDCGTPFCQIGADINGFTSGCPIYNLIPEWNDLVYRGRWKEALERLLKTNNFPEFTGRVCPAPCEGSCTLAISDPAVSIKNIERTIIDKGFENGWIQPRIPKKRTGKKVAIVGSGPAGLASADQLNQAGHSVTVFERADRAGGLLTYGIPNMKLEKGIVERRIKLLTQEGIDFVTNTEIGVDITADELKEQFDAVILCTGAQKQRDLLIEGRDSKGVHYAMDYLTLATKSYLDSNFKDKQFIDAKGKDVIVIGGGDTGADCVATALRQKAKSVHQFGKHPKLPPARTNDNMWPEQPHVFTLEYAYEEREAKFGRDPREYSIQTTKMVADKNGKLKELHTIQMEKVKNEHGKYEFRELPGTEKVWPAQLVFIAIGFEGTEQPLLKQFGVNSVNNKISAAYGDYQTNIDGVFAAGDARRGQSLIVWAINEGREVAREVDRYLMGSSVLPLEHHHHHH
MSLAVKILSVDDELDLEVLLTQYFRRQIRKGEYEFAFAHNGLEALQKLLETPDFDIILSDINMPEMDGLTLLAKVNELKNPAMKCIMVSAYGDMDNIRSAMNKGAFDFATKPIDLDDLSRTIEKAIEQVRYIRESQQEHNQLESIKNDLAIAGEIQQTILPRSFPPFPELTEVVNIYASMTPAKDVGGDFYDFFQIDDERIGLVIADVSGKGVPASLFMAVSRTLLRATALRGVSSAECLTYANKLLCKESLDSMFVTVFYGIYHYKTGMMDYTNAGHNPPYLLRGGRTVECLPVASNFVVGVFDDIEFESNTLTFGIGDTLLLYTDGVTEAFNDKREQFSESNLQDILASMHESSSAKEVVTSVLQSVKTFSGDYPQSDDITLLSLQRIKEGHHHHHH
MAIWQGASRRLSTGAKVWRAAKKHKREMGRPAAETQVSDKIKRKIVRCRGANLKVKLEKTNYANVFDQANKVCKKVVVTNVIDNKANKHYIRRNVMTKGAIIETEMGKAKVTSRPGQDGVVNAILLTELEHHHHHH
MKMNLSTPFPLGATLDAEGCNFAIYAPANRDILLALFHADGSYETHQLEHEYAGVKHTHISGIHAGQKYGYLIQLNDELHYISDPYARALEGPLHYAPPFDSHKSFDLPKCVVTDTHFDWQNVAKPRIARDEMVLFETHVKGLTQLNPDVEKALRGKYLGLVSQPMLDFYRQQNINTLQLLPIAACMHEPHLLESGKVNYWGYNPYVFMAPDPRYASKDAVNELKTTIRELHRNGIQVILDVVYNHTAEGGTNGPVFNLKALDPNYYLHHGDHYANYTGCGNTVDLSNQAALNLVMDTLRCWVTEYQIDGFRFDLAATLGRRGDEFSKEAAFFKAVAQDPVLREVKLIAEPWDIGPNGYQVGNFPFGWNETNDKLRDITRSFWRGDLGFLKEFATRLMGSRDLYSAANWPYKLTVNYITYHDGFTLQDLVSYKHKHNEANGEQNRDGHGDNRSDNYGFEGDTDSIVIRATRERQKRNFMASLLFAFGIPHILTADVLSHTQKGNNNAYCQDNDISWLNWENNETKQDFREWLAGMVAARQTYMVPFIRAFSGENRNNNRIAWRRVDGKPMEMDDWNRLSSVALHIGIGSDGPEMLYLINQTNAPARFVLPKDRQQDWRLICDTNMRHAQHGHAEGEVLQLPVSMSILHYQPKKKSA
MGWCITVVHNTKWKAPPDTHIKCNYDAGFNVQNLDSTARWIIRNHDGIAQHWGSLQLDNTSTPLEAETKALLAALQQTWIRGYLRVIMEGDCETLTNLVSGSSSHNHLANLLDDIRIWAKKFSNVQFSFVRRGGNKVAHELAKLGCNSTCFYSDSCTLPIWLHQHYCNDFG

Soluble on expression in E. coli, not soluble:
MHIEFRHLRTIKAIHDCGGLARAADQLNITQSALSHQIKGLEDQAGVELFVRRSKPMKLSAAGMRLLRLAEQILPQVEAMQAEFSSLRDGRSGRMHIAIECHACFEWLFPVLEAFRKNWPDVDVDIRPGLAFDALPALQKEEVDLVVSSDPEEIAGVEFVELFDYNAVFVAASTHPLAAKPWVEAEDFRGETLITYPVERTRLDVFSQLLIPARVEPAQVRQVELTAVILLLVASNRGVSVLPDWVVREVKYSSDYVTRPLTETGITRRLYAAVRSEDLEKPFVQELVTLARSEARKLQSR
MVPSNAESQSVVVIGAGIGGLTTAALLAQQGYRVKVYEQAAIVGGCASTFRRRGFIFDVGATQVAGLEPGGIHHRIFRQLQVDLPEATLCDPACAVFLPGEKQPINVWHDPERWQREREQQFPGSGRFWQLLQTLFQISWRFQGRDPVLPPRSMWDLGQLLGALRPDTLLTAPFVPLTVGDTLRLLGLGSDQRLKTFLDLQLKLYSQVGADETALLYAATALSVSQGPQGLWHLQGSMQTLGDRLVEALKNHGGELFCSQRVEQIHCGQGYVEGVTVRDVRSGEVRQEKAQQVVANLTVQNLLQALDQPLPGYQKRVTNLPSGSGAFVIYLGVKEDAIPPDCAPHLQFLYDHQGPIGENNSLFVSVSKPGDGRAPRGCRTVIASSFTDVAPWWNASREQYQALKESYTTTAISRLGEYFNLDESTIVHQESATPRTFDRYTARDQGIVGGVGQRLTTFGPFGFAPRTPIRNLWLVGDSVHPGEGTAGVSYSALTIARQICASGATNSLEHHHHHH
MGSDKIHHHHHHMKVCILGATGRVGSNIIKLALKDSVEVTALARDSSRVEINHERLRVIEGNVLNENDIKKAIEGSDIVISALGTDQNGTLAKSMPQIIKKMEEEGVRKIITIGTAGILQARTNLNLYRFQSTESKRKSTTAAEEHLAAYKILSSSNLCWTVVCPTHLIDGDVTGIYRTEKDVLPEGGAKITVGDTAQFTWNLCSKNKYENSRVGISY
MGSDKIHHHHHHMMKHRHPQLRFLGATDSVTGSRYLVEAAGKRILVDCGLFQGYKVLRDRNRIPFPVRPDSIDAILLTHAHLDHTGYVPALVRDGFNGPVYATEGTTELCTLLLPDSGHLQEEEAKYAYEHGSSRHSPPVPLYTAADAVRSLDSFREHGFDTPLELGGGIAATFLPAGHILGAAQIRLAVGQHSVHFTGDLGRTDDPLMFPPRGLGAADILVTESTYGNRKHSSLDPELQLGEIITRVAKKNGVIMIAAFAVGRAETLMLHLSRLRSKNAIPDIPVYLNSPMAIDASGMYQRHPDEHRLKQPEYEDMYKVAKMTRTVDDSKLLNLRGGPMVIISASGMLTGGRILHHIAEYGPDPKNAIILSGYQAGGTRGAALAAGVRQLRIYGEDVRIRAEVIQMESLSAHADSDGLIEWMRAAAREPRMTYITHGEPEASDALRIRIKRELGWRVRVPEYLEGISLEDPT
MTKPIVFQNARIIDPSRTIDEIGTVIVENGLIIAAGKEALNQGIPEGAEIINAQNKAILPGLVDARVFVGEPGNESRETLASASQSAAAGGITSFLMMPNTNPVIDNIALVKFITHTAQEISSVNIYPVAAITQGFNGQEIAEFGLLKDAGAVAFSEGKKTLQNSSVMRRAMTYARDFDVPLMHETQDKDLIGQGVMNEGLLASWLGLSGIPREAEVIPLERDLRLAALTQTRYHAAQISTALSADALRLSKQRSEKISAGVSINHLSFNENDIGEYRTSFRLIPPLRTEEDRIAMIEAIKDGTVDIIVSSHDPQSLDKKNLPFSEAAIGAIGMETLLSAALRLYHNGTISLLRLTELLSTTPAKLFDLNAGTLRKGTHADLILVDLDEPWIVSPEKLYSRSKNTPFEKAHFQGRVLQTFVKGQSIFKLDQ
MGSDKIHHHHHHMGINKFNHEGYHDPTPHEALTNIMKKEKAEKKSAFKPLVYICSPYSGDVEGNIKKARSFCRFALDQNCIPIAPHLMFPQFMDDENPEERELAIFMDIVLMGKCSEVWVLGNTISTGMAREIEVAKKRRQTVRYFSPEHEEVESL
MGSDKIHHHHHHMANGTTPSVGIALGSGAAKGWAHIGVLNGLAAMGIKPDKVAGCSVGALVGAAYAHDHLPELEEWVRSFSSWDVLGLMDIRWRKGGLIGGDKVFDVLQARIGDVNIENLNRPFAAVATDLYSGQEIWFTEGDLRQAVRASCSMPGILAPVRQGDRWLVDGAVVNPVPVSVSRAMGVDVVIAVDLYGYHSGRIQVLPVSMTSQKNVEAEMDMSARQETGFMDLFARGRDYVSNLTDKFSLGTKSNPGMIAVMSQSMGILEQRHKRARLMGDPPDICIVPEVGNIGTMEFHRADEAIAAGEAAVEKVAHLIEAALWKG
